The Human Domainome abundance scans (Beltran et al. 2025)
± gives the uncertainty stated by the source.

B1: Nuclear receptor subfamily 4 group A member 2, residues 260 to 336; numbered along this chain, P43354 (parent)
chain: EGLCAVCGDNAACQHYGVRTCEGCKGFFKRTVQKNAKYVCLANKNCPVDKRRRNRCQYCRFQKCLAVGMVKEVVRTD

Variants of: B1
Assay: abundance fitness (aPCA) (normalised: wild type 0, dead -1); higher = more abundant; growth selection in yeast, the domain comes from the species named
Conditions: Homo sapiens

| Variant | abundance fitness |
| --- | --- |
| EGLCAVCGDNAACQHYGVRTCEGCKGFFKRTVQKQAKYVCLANKNCPVDKRRRNRCQYCRFQKCLAVGMVKEVVRTD [N35Q] | -0.081 ± 0.1 |
| EGLCAVCGDNAACQHYGVRTCEGCKGFFKRTVQKVAKYVCLANKNCPVDKRRRNRCQYCRFQKCLAVGMVKEVVRTD [N35V] | -0.487 ± 0.12 |
| EGLCAVCGDNAACQHYGVRTCEGCKGFFKRTVQKTAKYVCLANKNCPVDKRRRNRCQYCRFQKCLAVGMVKEVVRTD [N35T] | -0.137 ± 0.13 |
| EGLCAVCGDNAACQHYGVRTCEGCKGFFKRTVQKKAKYVCLANKNCPVDKRRRNRCQYCRFQKCLAVGMVKEVVRTD [N35K] | 0.033 ± 0.12 |
| EGLCAVCGDNAACQHYGVRTCEGCKGFFKRTVQKDAKYVCLANKNCPVDKRRRNRCQYCRFQKCLAVGMVKEVVRTD [N35D] | 0.118 ± 0.12 |
| EGLCAVCGDNAACQHYGVRTCEGCKGFFKRTVQKSAKYVCLANKNCPVDKRRRNRCQYCRFQKCLAVGMVKEVVRTD [N35S] | -0.198 ± 0.085 |
| EGLCAVCGDNAACQHYGVRTCEGCKGFFKRTVQKEAKYVCLANKNCPVDKRRRNRCQYCRFQKCLAVGMVKEVVRTD [N35E] | 0.071 ± 0.094 |
| EGLCAVCGDNAACQHYGVRTCEGCKGFFKRTVQKHAKYVCLANKNCPVDKRRRNRCQYCRFQKCLAVGMVKEVVRTD [N35H] | -0.13 ± 0.14 |
| EGLCAVCGDNAACQHYGVRTCEGCKGFFKRTVQKWAKYVCLANKNCPVDKRRRNRCQYCRFQKCLAVGMVKEVVRTD [N35W] | -0.407 ± 0.12 |
| EGLCAVCGDNAACQHYGVRTCEGCKGFFKRTVQKYAKYVCLANKNCPVDKRRRNRCQYCRFQKCLAVGMVKEVVRTD [N35Y] | -0.139 ± 0.15 |
| EGLCAVCGDNAACQHYGVRTCEGCKGFFKRTVQKRAKYVCLANKNCPVDKRRRNRCQYCRFQKCLAVGMVKEVVRTD [N35R] | -0.136 ± 0.088 |
| EGLCAVCGDNAACQHYGVRTCEGCKGFFKRTVQKMAKYVCLANKNCPVDKRRRNRCQYCRFQKCLAVGMVKEVVRTD [N35M] | -0.173 ± 0.11 |
| EGLCAVCGDNAACQHYGVRTCEGCKGFFKRTVQKIAKYVCLANKNCPVDKRRRNRCQYCRFQKCLAVGMVKEVVRTD [N35I] | -0.127 ± 0.27 |
| EGLCAVCGDNAACQHYGVRTCEGCKGFFKRTVQKLAKYVCLANKNCPVDKRRRNRCQYCRFQKCLAVGMVKEVVRTD [N35L] | -0.085 ± 0.087 |
| EGLCAVCGDNAACQHYGVRTCEGCKGFFKRTVQKCAKYVCLANKNCPVDKRRRNRCQYCRFQKCLAVGMVKEVVRTD [N35C] | 0.141 ± 0.22 |
| EGLCAVCGDNAACQHYGVRTCEGCKGFFKRTVQKFAKYVCLANKNCPVDKRRRNRCQYCRFQKCLAVGMVKEVVRTD [N35F] | -0.089 ± 0.35 |
| EGLCAVCGDNAACQHYGVRTCEGCKGFFKRTVQKAAKYVCLANKNCPVDKRRRNRCQYCRFQKCLAVGMVKEVVRTD [N35A] | 0.011 ± 0.068 |
| EGLCAVCGDNAACQHYGVRTCEGCKGFFKRTVQSNAKYVCLANKNCPVDKRRRNRCQYCRFQKCLAVGMVKEVVRTD [K34S] | -0.051 ± 0.21 |

| Variant | abundance fitness |
| --- | --- |
| EGLCAVCGDNAACQHYGVRTCEGCKGFFKRTVQGNAKYVCLANKNCPVDKRRRNRCQYCRFQKCLAVGMVKEVVRTD [K34G] | 0.05 ± 0.12 |
| EGLCAVCGDNAACQHYGVRTCEGCKGFFKRTVQVNAKYVCLANKNCPVDKRRRNRCQYCRFQKCLAVGMVKEVVRTD [K34V] | -0.037 ± 0.23 |
| EGLCAVCGDNAACQHYGVRTCEGCKGFFKRTVQCNAKYVCLANKNCPVDKRRRNRCQYCRFQKCLAVGMVKEVVRTD [K34C] | -0.033 ± 0.41 |
| EGLCAVCGDNAACQHYGVRTCEGCKGFFKRTVQRNAKYVCLANKNCPVDKRRRNRCQYCRFQKCLAVGMVKEVVRTD [K34R] | -0.243 ± 0.24 |
| EGLCAVCGDNAACQHYGVRTCEGCKGFFKRTVQWNAKYVCLANKNCPVDKRRRNRCQYCRFQKCLAVGMVKEVVRTD [K34W] | -0.227 ± 0.49 |
| EGLCAVCGDNAACQHYGVRTCEGCKGFFQRTVQKNAKYVCLANKNCPVDKRRRNRCQYCRFQKCLAVGMVKEVVRTD [K29Q] | -0.097 ± 0.12 |
| EGLCAVCGDNAACQHYGVRTCEGCKGFFHRTVQKNAKYVCLANKNCPVDKRRRNRCQYCRFQKCLAVGMVKEVVRTD [K29H] | 0.071 ± 0.17 |
| EGLCAVCGDNAACQHYGVRTCEGCKGFFLRTVQKNAKYVCLANKNCPVDKRRRNRCQYCRFQKCLAVGMVKEVVRTD [K29L] | 0.008 ± 0.078 |
| EGLCAVCGDNAACQHYGVRTCEGCKGFFGRTVQKNAKYVCLANKNCPVDKRRRNRCQYCRFQKCLAVGMVKEVVRTD [K29G] | -0.178 ± 0.074 |
| EGLCAVCGDNAACQHYGVRTCEGCKGFFNRTVQKNAKYVCLANKNCPVDKRRRNRCQYCRFQKCLAVGMVKEVVRTD [K29N] | -0.138 ± 0.33 |
| EGLCAVCGDNAACQHYGVRTCEGCKGFFIRTVQKNAKYVCLANKNCPVDKRRRNRCQYCRFQKCLAVGMVKEVVRTD [K29I] | 0.214 ± 0.21 |
| EGLCAVCGDNAACQHYGVRTCEGCKGFFMRTVQKNAKYVCLANKNCPVDKRRRNRCQYCRFQKCLAVGMVKEVVRTD [K29M] | 0.296 ± 0.19 |
| EGLCAVCGDNAACQHYGVRTCEGCKGFFTRTVQKNAKYVCLANKNCPVDKRRRNRCQYCRFQKCLAVGMVKEVVRTD [K29T] | -0.066 ± 0.16 |
| EGLCAVCGDNAACQHYGVRTCEGCKGFFDRTVQKNAKYVCLANKNCPVDKRRRNRCQYCRFQKCLAVGMVKEVVRTD [K29D] | 0.11 ± 0.21 |
| EGLCAVCGDNAACQHYGVRTCEGCKGFFRRTVQKNAKYVCLANKNCPVDKRRRNRCQYCRFQKCLAVGMVKEVVRTD [K29R] | -0.123 ± 0.08 |
| EGLCAVCGDNAACQHYGVRTCEGCKGFFYRTVQKNAKYVCLANKNCPVDKRRRNRCQYCRFQKCLAVGMVKEVVRTD [K29Y] | -0.344 ± 0.42 |
| EGLCAVCGDNAACQHYGVRTCEGCKGFFWRTVQKNAKYVCLANKNCPVDKRRRNRCQYCRFQKCLAVGMVKEVVRTD [K29W] | -0.253 ± 0.19 |
